Patent US20260248917A1, “BICYCLIC PEPTIDE LIGANDS SPECIFIC FOR EPHA2 AND USES THEREOF” (BicycleTx Limited, priority 2019, published 2026)

Tests used:
Type in all cases: physicochemical
[1] = Appearance of solution (bulk or reconstituted), visual; settings: 4 mg/mL bulk solution
Experimental: (§1) The bulk solution appearance, pH, density and BT5528 assay/related substances were recorded. Additional samples were subjected to three freeze (−20° C.)/thaw cycles, assessing appearance, pH, UPLC and sub-visible particulates (MFI) after each cycle.
(§2) The lyophilized product was placed on stability and tested for 1 month (according to Table 1-9) at accelerated storage of 25° C./60% RH. The lyophilized product was assessed by means of appearance, moisture content, and assay and related substances by UPLC. The reconstituted product was assessed on the basis of reconstitution time, solution appearance, pH and sub-visible particulates (T=0 only).

[2] = pH of bulk or reconstituted solution; settings: 4 mg/mL bulk solution
Experimental: as §1, §2

[3] = Reconstitution time of lyophilized product; settings: 21.2 mg/vial reconstituted with 5.3 mL 0.02 M HCl, versus 0.01 M HCl
Experimental: as §2
Formulations 1 to 4 had significant adsorptive properties with the drug product adsorbing onto the glass vial above and in the reconstituted solution. Formulation 5 (2 mg/mL BT5528) produced the best results with drug product adsorbing only slightly above the solution and no adsorption noted within the solution. Variability in reconstitution time derives from the analytical procedure deviating throughout the testing of formulation 1. This occurred due to the severe adsorptive nature of formulation 1. For the 4 mg/mL solution agitation occurred immediately after addition of reconstitution medium producing a severe adsorptive spread above the solution. A settle period before agitation was performed for the 2 mg/mL producing a better reconstitution performance although adsorption was still noted. For the 1.3 mg/mL solution a settle period of 5 minutes was performed to minimize the agitation required. […]

[4] = Density of final solution; settings: filtered 4 mg/mL solution
Experimental: as §1
The pH of the solution was measured and adjusted to target (pH 6.8-7.2). The pH was 7.79 pH after the addition of API and was adjusted to 7.19 pH using 0.1 M HCl solution. The solution was transferred to a 20 mL volumetric flask and make to final volume with WFI. The solution was filtered through a single 0.22 μm, PES membrane syringe filter. The final solution was a clear, colourless solution which was free from any visible particulates. The density of the final solution was measured, 1.025 g/cm^3. A pre- and post-filtration sample was passed to analytical for HPLC analysis. The remaining bulk solution was filled in 2 mL volumes into 2 mL glass vials and subjected to three, freeze/thaw cycles.

In the case of “BT5528: Bicycle toxin conjugate; TATA scaffold; peptide ligand (β-Ala)-Sar10-A(HArg)D-Ci(HyP)LVNPLCiiLHP(D-Asp)W(HArg)Ciii (SEQ ID NO: 1)”, the Appearance ([1]; Freeze Thaw Cycle 1 (−20° C.)) is reported as “Clear, colourless solution free”, the Appearance ([1]; Freeze Thaw Cycle 2) is reported as “Clear, colourless solution free” and the Appearance ([1]; Freeze Thaw Cycle 3) is reported as “Clear, colourless solution free”. For the same substance, the Appearance ([1]; Post Filtration) was “Clear, colourless solution free”, the Appearance ([1]; Pre Filtration) was “Clear, colourless solution free” and the pH ([2]; Freeze Thaw Cycle 1) was 7.3. It also gave a pH ([2]; Freeze Thaw Cycle 2) of 7.3, a pH ([2]; Freeze Thaw Cycle 3) of 7.3 and a pH ([2]; Pre Filtration) of 7.2. The “reconstitution time and appearance of the reconstituted product (oily droplet formation)” value [3] was “improved” and the “density of the final solution” value [4] was 1.025 g/mL.
